16 substances from patent publication US8828940B2, “Method of treating an ischemia-reperfusion injury-related disorder by administering GPCR ligands” (priority 2006, dated 2014) can be followed below.

Like-named read-outs stand apart in the source and are kept apart here. No end group written: not given here.

The target in one assay is T1, Mas receptor (Homo sapiens, UniProt P04201).
T1 construct: expressed in transfected cells; host or cells: CHO-K1 (ATCC-CCL-61), transient co-transfection
T1 sequence (P04201 1-325): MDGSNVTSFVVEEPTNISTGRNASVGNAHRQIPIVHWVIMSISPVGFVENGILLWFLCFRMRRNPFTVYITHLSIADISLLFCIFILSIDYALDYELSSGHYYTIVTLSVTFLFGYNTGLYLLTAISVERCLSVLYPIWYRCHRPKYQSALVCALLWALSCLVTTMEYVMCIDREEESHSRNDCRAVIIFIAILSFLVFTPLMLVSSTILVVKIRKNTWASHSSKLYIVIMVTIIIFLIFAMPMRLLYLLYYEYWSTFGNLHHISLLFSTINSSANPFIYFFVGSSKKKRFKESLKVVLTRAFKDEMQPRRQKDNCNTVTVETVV
As to the kind of experiment: Calcium flux in Mas-transfected CHO-K1 cells. In kind it is cell-based. As to conditions: for ability to induce calcium flux, relative potency (P61 family): dose response, Mas-transfected cells; for ability to induce calcium flux, relative potency (P33 family): 0.1, 1, 10, 100, 1000 and 10000 nM. As for the experimental part: (§1) The assay was carried out in CHO cells were transiently transfected with the GPCR of choice, by utilizing the promiscuous Gα16 to divert signaling to the Gq pathway, thus enabling readout of GPCR activation by testing for Calcium flux as described by Liu et al 2003 (Biomol Screen 8, 39-49).
(§2) All the peptides thus obtained were tested for their ability to change calcium flux in CHO-K1 cells (ATCC-CCL-61) transiently co-transfected with an expression vector containing the GPCR of choice and expression vector containing the Gα16 encoding cDNA. Expression constructs containing cDNA clones for MrgX1, MrgX2, Mas or FPRL1 were commercially obtained in one of the following expression vectors: pcDNA3.1, pCMV6, or MO2.
(§3) Transient transfections were performed using CHO-K1 cells as host cells. Cells (12 million) were plated into T75 flasks on the day preceding transfection. Cells were transfected with the appropriate GPCR expression vector and with a vector expressing Gα16 using a lipid-based reagent, MTI, according to the manufacturer's recommendation. Cells were transfected for 5 hours, then re-plated into 96-well dishes (60,000 cells per well) and grown overnight.
On the day of the experiment, cells were loaded with Fluo-4-NW (Invitrogen) according to the manufacturer's recommendation. Plates were loaded into a FlexStation™ (Molecular Devices) plate reader and fluorescence was monitored. Seventeen seconds following initiation of reading, cells were stimulated with the indicated agonist/compound at final concentration of 1 μM. Each 96 well plate contained cells transfected with one GPCR expression vector and each of the examined peptides was tested in triplicate.
(§4) We defined a hit as a peptide which elicited a clear and distinct increase in intracellular calcium that is clearly visible and statistically significant upon examination of the calcium trace for at least two repeats. The criterion for statistical significance was a p-value lower than 0.001 in a t-test comparing the levels of calcium before and after peptide addition.
Based on dose response experiments, EC50 best fit values were calculated by non-linear regression of sigmoidal dose-response curves, using Prism version 4 (GraphPad Software Inc., San Diego, Calif.). The formulae for the sigmoidal dose-response curves was defined as Y=Bottom+(Top−Bottom)/(1+10^(Log EC50−X)*HillSlope))
The ability of Peptides to change calcium flux was examined in CHO-K1 cells co-transfected with Mas receptor and Gα16.
The P33 monomer and dimer, as well as other P33 derivative peptides were compared for their ability to induce calcium flux in the Mas-transfected cells at 0.1, 1, 10, 100, 1000 and 10000 nM.

Another assay deals with T2, FPRL1 (Homo sapiens, UniProt P25090).
T2 sequence (P25090 1-351): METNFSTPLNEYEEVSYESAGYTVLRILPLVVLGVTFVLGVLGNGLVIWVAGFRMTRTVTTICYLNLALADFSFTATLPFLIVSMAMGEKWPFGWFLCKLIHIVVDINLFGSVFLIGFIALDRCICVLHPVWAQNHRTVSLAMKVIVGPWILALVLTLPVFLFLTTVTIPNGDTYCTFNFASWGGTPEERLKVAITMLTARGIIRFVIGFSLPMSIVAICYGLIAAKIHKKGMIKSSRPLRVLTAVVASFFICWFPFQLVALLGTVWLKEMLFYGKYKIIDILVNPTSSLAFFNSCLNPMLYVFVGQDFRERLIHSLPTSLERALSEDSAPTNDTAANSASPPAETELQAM
The experiment in a line: Calcium flux in FPRL1-transfected CHO-K1 cells. In kind it is cell-based. Also on record: expressed in transfected cells; host or cells: CHO-K1 (ATCC-CCL-61), transient co-transfection. As to conditions: for ability to induce calcium flux (P33 family): 0.1, 1, 10, 100, 1000, 10000 nM; for calcium flux (P58 family): dose response, FPRL1 transfected CHO cells. Here is the method:
as §1, §2, §3
On the day of the experiment, cells were loaded with Fluo-4-NW (Invitrogen) according to the manufacturer's recommendation. Plates were loaded into a FlexStation™ (Molecular Devices) plate reader and fluorescence was monitored. […] Each 96 well plate contained cells transfected with one GPCR expression vector and each of the examined peptides was tested in triplicate.
as §4
The ability of Peptides to change calcium flux was examined in CHO-K1 cells co-transfected with FPRL1 and Gα16.
The P33-derived peptides (see FIG. 1): P33_V (SEQ ID NO:7), P33 (SEQ ID NO:6)-mono, P33 (SEQ ID NO:6)-dimer, P33—5 (SEQ ID NO:27), P33—8 (SEQ ID NO:14), P33—9 (SEQ ID NO:15) and P33—10 (SEQ ID NO:16) were tested for their ability to activate FPRL1 using the calcium flux assay in FPRL1-transfected CHO cells. […] The lack of activity of these peptides might be due to reduced potency; insufficient sensitivity of the experimental system, alternative interaction of the receptor, or activation of other pathways, which are not related to calcium flux. Thus, this interaction should be further characterized.

For assay [1], the system named is Zymosan-induced murine dorsal air pouch model. In kind it is in vivo, mice. As to conditions: 4 h. As for the experimental part:
In order to analyze the ability of P58 to exert in vivo effects via the FPRL1 receptor, an acute experimental model of inflammation, the Zymosan-induced murine dorsal air pouch model, was used.
Male out-bred Swiss albino mice were purchased from Harlan, UK (T.O. strain) and maintained on a standard chow pellet diet with tap water ad libitum and a 12:00 h light /dark cycle. All animals were housed for 7 days prior to experimentation to allow body weight to reach ˜30 g on the day of the experiment.
Drugs were stored at −20° C. and defrosted on the day of the experiment. Peptide P58 was provided lyophilized; it was taken back to room temperature and dissolved with sterile PBS before use to make an initial 1 mg/ml solution. Peptide Ac2-26 (positive control) was also dissolved with sterile PBS before use to make an initial 1 mg/ml solution. Vehicle consisted of sterile pyrogen free PBS (Gibco, cat no. 14190-094). Once dissolved, P58 (SEQ ID NO:1) and Ac2-26 gave a clear solution. Drugs or vehicle were administered i.v. at a final volume of 200-μl, this volume containing the doses described below.
Lavage fluids were kept all the time on ice, then used to determine the number of migrated leukocytes, by taking an aliquot (100 μl) and diluting it 1:10 in Turk's solution (0.01% crystal violet in 3% acetic acid). The samples were then vortexed and 10 μl of the stained cell solution were placed in a Neubauer haematocymometer. Differential cell count was done using a light microscope (Olympus B061). In view of their chromatic characteristics and their nucleus and cytoplasm appearance, polymorphonuclear leukocytes (PMN; >95% neutrophils) could be easily identified.
For FACS analyses, an aliquot of lavage fluid was stained with the PE-conjugated anti-GR-1 monoclonal antibody (1:100 dilution, BD Biosciences; Cat 553128) to mark polymorphonuclear leukocytes. Staining was performed at 4° C.
Flow cytometry was performed using FACScan analyser (Becton Dickinson, Cowley, UK) with air-cooled 100 mW argon laser tuned to 488 nm connected to an Apple Macintosh G3 computer running Cell Quest II software. Forward and sidescatter characteristics were initially used to distinguish between the three distinct cell populations (lymphocytes, monocytes and granulocytes). Cells positive for GR-1 were detected in the FL2 channel (wavelength of 548 nm). Data are expressed as percentage of positive cells (in relation to the specific mAb). Determination of positive and negative populations was performed based on the control staining with irrelevant IgG isotype (rat IgG2b) labelled with PE. Once determined, quadrants were rigorously maintained for all analyses.
Data are shown for single mice, and also shown as mean±S.E. of (n) mice per group. Statistical differences were determined by ANOVA, plus Student Newman Keuls test. A P value <0.05 was taken as significant.
The anti-inflammatory activity of P58 shorter derivatives was tested in the same model of acute inflammation used in Example 6, the Zymosan-induced murine dorsal air pouch model.
Male out-bred Swiss albino mice were purchased from Harlan, UK (T.O. strain) and maintained on a standard chow pellet diet with tap water ad libitum and a 12:00 h light /dark cycle. All animals were housed for 7 days prior to experimentation to allow body weight to reach ˜25 g on the day of the experiment.
Drugs were stored at −20° C. and defrosted on the day of the experiment. Peptide P58 (SEQ ID NO:1) was provided lyophilized; it was taken back to room temperature and dissolved with sterile PBS before use to make an initial 1 mg/ml solution. Peptide P58-4 (SEQ ID NO:2) was provided lyophilized; it was taken back to room temperature and dissolved with sterile PBS before use to make an initial 327 μg/ml solution. Peptide P58-5 (SEQ ID NO:3) was provided lyophilized; it was taken back to room temperature and dissolved with sterile PBS before use to make an initial 476 μg/ml solution. […]

For “IYLNRKRRGDPAFKRRLRD (listed as Homo sapiens) [P61—4]”, the “ability to induce calcium flux, relative potency (P61 family)” value in the assay with Mas receptor is listed as “somewhat weaker”.
“HRWSRAVLFPAAHRP (listed as Homo sapiens) [P33—9]”: the “ability to induce calcium flux, relative potency (P33 family)” value with Mas receptor is “induced calcium flux, albeit at a somewhat lower degree compared to P33_V”. The “ability to induce calcium flux (P33 family)” value with FPRL1 is “failed to induce calcium flux”.
As for “TIPMFVPESTSKLQ (listed as Homo sapiens) [P58—7]”, the “calcium flux (P58 family)” value with FPRL1 was “did not induce calcium flux”.
In the case of “SMCHRWSRAVLFPAAHRP [P33_mono] (listed as Homo sapiens) [Peptide P33_mono]”, the “ability to induce calcium flux, relative potency (P33 family)” value with Mas receptor is listed as “equally potent”. Moreover, the “ability to induce calcium flux (P33 family)” value in the assay with FPRL1 is reported as “similarly potent”.
On to “Angiotensin 1-7 [Ang-(1-7), reference compound]”, for which the Ca response result in the assay with Mas receptor (Mas dose response experiment, data not shown) is on record as “did not induce Ca response”.
For the substance “FAFLGYSIYLNRKRRGDPAF (listed as Homo sapiens) [P61—11S]”, the “ability to induce calcium flux, relative potency (P61 family)” value with Mas receptor is “as potent as P61_S”.
Turning to “TIPMFVPESTS (listed as Homo sapiens) [P58—6]”, in the assay with FPRL1, the “calcium flux (P58 family)” value was “did not induce calcium flux”.
“WSRAVLFPAAHRP (listed as Homo sapiens) [P33—10]”: the “ability to induce calcium flux, relative potency (P33 family)” value with Mas receptor is given as “induced calcium flux, albeit at a somewhat lower degree compared to P33_V”. For the same substance, the “ability to induce calcium flux (P33 family)” value with FPRL1 is “failed to induce calcium flux”.
Turning to “Ac2-26: a peptide derived from the N-terminus of AnnexinI, known FPRL1 agonist, positive control (AMVSEFLKQAWFIENEEQEYVQTVK) [reference compound]”, in assay [1] (Example 6, 200 μg/mouse i.v.), the “inhibition of leukocyte accumulation triggered by zymosan A” value was “inhibited significantly”. The “inhibition of neutrophil (GR-1+) accumulation triggered by zymosan A” value in assay [1] (Example 6, 200 μg/mouse i.v., FACS) was 52%.
In the case of “AVLFPAAHRP (listed as Homo sapiens) [P33—5]”, the “ability to induce calcium flux (P33 family)” value with FPRL1 is “failed to induce calcium flux”.
In the case of “TIPMFVPESTSTLQ (listed as Homo sapiens) [P58—12]”, the “calcium flux (P58 family)” value with FPRL1 is “did not induce calcium flux”.
For the substance “FTSWFM-amide (FTSWFM-NH2; listed as Homo sapiens) [P58—4]”, the “inhibition of leukocyte accumulation triggered by zymosan A” value in assay [1] (Example 7, 20 nmole/mouse i.v.) was found to be 35%; in assay [1] (Example 7, 80 nmole/mouse i.v.), 47%. Besides, the “inhibition of zymosan-induced neutrophil (GR-1+) accumulation” value in assay [1] (Example 7, 80 nmole/mouse i.v., FACS) came to 49%. Moreover, the “calcium flux (P58 family)” value with FPRL1 is given as “elicited calcium flux”.
Consider “RWSRAVLFPAAHRP (listed as Homo sapiens) [P33—8]”, for which, in the assay with Mas receptor, the “ability to induce calcium flux, relative potency (P33 family)” value is “induced calcium flux, albeit at a somewhat lower degree compared to P33_V”. The “ability to induce calcium flux (P33 family)” value with FPRL1 was “failed to induce calcium flux”.
On to “SMCHRWSRAVLFPAAHRP [P33_dimer] (also: disulfide dimer via cysteine; listed as Homo sapiens) [Peptide P33_dimer]”, for which the “ability to induce calcium flux, relative potency (P33 family)” value with Mas receptor is recorded as “superior to the monomeric peptides”.
“LQKFTSWFM-amide (LQKFTSWFM-NH2; listed as Homo sapiens) [P58—5]”: the “inhibition of leukocyte accumulation triggered by zymosan A” value is on record as “did not inhibit leukocyte migration” in assay [1] (Example 7, 20 nmole/mouse i.v.) and 29% in assay [1] (Example 7, 80 nmole/mouse i.v.). The “inhibition of zymosan-induced neutrophil (GR-1+) accumulation” value in assay [1] (Example 7, 20 nmole/mouse i.v., FACS) was “weak effect”. In the assay with FPRL1, the “calcium flux (P58 family)” value is given as “elicited calcium flux”.
As to “TIPMFVPESTSTLQKFTSWFM-amide (TIPMFVPESTSTLQKFTSWFM-NH2; listed as Homo sapiens) [P58—10]”, the “calcium flux (P58 family)” value with FPRL1 is given as “elicited calcium flux”.
